Assay results published in the RNAGym collection of RNA variant scans (doi:10.1073/pnas.2313332121).
This sample holds only a part of the variants without activity.

B1: TPR 5TU (parent)
chain: GGAUCUUCUCGAUCUAACAAAAAAGACAAAUCUGCCACAAAGCUUGAGAGCAUCUUCGGAUGCAGAGGCGGCAGCCUUCGGUGGCGCGAUAGCGCCAACGUUCUCAACUAUGACACGCAAAACGCGUGCUCCGUUGAAUGGAGUUUAUCAUG

Variants of: B1
Experiment: polymerase ribozyme fitness, log enrichment relative to wild type (log ratio); higher = more active; in vitro selection for triplet polymerase activity
Outline: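 The heterodimeric triplet polymerase ribozyme's subunits were each mutagenized into PCR-built libraries and transcribed. Every library was selected once, in triplicate, by annealing with a biotinylated primer, the partner subunit and triplets, incubating frozen at −7 °C, gel-excising extended constructs, capturing on streptavidin beads and running RT-PCR. Input and output libraries were Illumina-sequenced, with genotypes kept only at ≥10 input reads and ≥1 read per output. Fitness, from inverse-variance-weighted replicate averages, is the base-2 logarithm of genotype enrichment over wild-type enrichment.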

Row | Variant | polymerase ribozyme fitness (log ratio)
1 | A39U C85U | -2.27
2 | A40U C99U G117C | -0.515
3 | A39U G48C G67A C85G G86U G88A G92A C118G | ≤ -4.2
4 | A40G C93U A106G C118U | -3.47
5 | A39U U101C U144G | -2.52
6 | A39U U55A G83U C95G A115C C149G | ≤ -4.2
7 | A40G G94C | -1.82
8 | A40U C57U C76A | -0.244
9 | A40C U53A | 0.24
10 | A39U C54U C96A | -2.72
11 | A40G U53G G84A A110G G136U | ≤ -4.2
12 | A40G C85U C118A | -2.77
13 | A39U C93A C105G A113U C114G | ≤ -4.2
14 | A40C U44A A60G C69U C72U G83C U104A U127G G152A | ≤ -4.2
15 | A39U U77G G124C U135G U146A | ≤ -4.2
16 | A40C A52C G86A A98G | -2.37
17 | A40G G81A G88C | ≤ -4.2
18 | A40G U90G C95A G112C U127C | ≤ -4.2
19 | A40C U44G C63U C95U C103G A115G A142C | ≤ -4.2
20 | A40U C54U C85U C108U | ≤ -4.2
21 | A39U G117U | -1.04
22 | A40G G143A | -2.88
23 | A40U G50C G67C C103A C129G U144G | ≤ -4.2
24 | A40C G88U C96U A122U U127G U148A A150U | ≤ -4.2

Row | Variant | polymerase ribozyme fitness (log ratio)
25 | A40C A122G | 0.759
26 | A39U C51U C54U A60G U82G A98C | -3.88
27 | A40U A91U U102A U104C U139A | ≤ -4.2
28 | A39U U139A | -3.87
29 | A40C G94U C129G U139A G141U U146C | ≤ -4.2
30 | A40C C85U | -0.549
31 | A40C C85A | -2.39
32 | A39U C54U C57G U61A C95G C125G | ≤ -4.2
33 | A39U C96G | -2.11
34 | A39U C96A | -2.81
35 | A39U C43A C75G C87U C118U | ≤ -4.2
36 | A39U A41C A98G | -2.72
37 | A40G A52U A91C C108U G143C U148A | ≤ -4.2
38 | A40G C116G A120U | -1.72
39 | A40C U56A G128C | -3.92
40 | A40C A49C C54A C96U C114U G126A | ≤ -4.2
41 | A40C C125A | -0.0259
42 | A40U A41U A49U G59A C87G U146G | ≤ -4.2
43 | A40C C96U A122G G124C | -0.809
44 | A40G C95A U104G A142G | -3.8
45 | A40U A137U G140C | -4.19
46 | A40G C85G U111G U151C | ≤ -4.2
47 | A40C G143A | -0.684
48 | A40C U135A | -0.385

Row | Variant | polymerase ribozyme fitness (log ratio)
49 | A40U A47C A89U U134G | -2.3
50 | A40U A49C C72A C95U C99G A138C | ≤ -4.2
51 | A39U C85G C96A A107G | ≤ -4.2
52 | A40U G50C C85G C99U A137U U148G | ≤ -4.2
53 | A40C U134A | -1.77
54 | A40U C114U G141C G152U | -3.44
55 | A39U U78A G83A G84C A115U U134C G136U | ≤ -4.2
56 | A40U C114U | -2.19
57 | A39U U44A C79G C132G U139A | ≤ -4.2
58 | A39U A60U G81A C85A C93U | ≤ -4.2
59 | A39U G100A A110G A150U | ≤ -4.2
60 | A40G A115G A137G C149U | -4.02
61 | A40U C79G A91G | ≤ -4.2
62 | A40C G42A A52C G94C C99U | ≤ -4.2
63 | A40G A41G U53G C85A U127G C131U G143A | ≤ -4.2
64 | A40C A52U G68C C85A G128C | ≤ -4.2
65 | A40U C87U A89G | -3.2
66 | A40C A119C | 0.851
67 | A40C G46C C57A G74C C103A A107U C118G U134G G140C | ≤ -4.2
68 | A40G G117A | -3.18
69 | A40C C96U | -0.579
70 | A40C C75U C116U A119C | -1.75
71 | A40G A52C G83U A98C | -3.64
72 | A39G U77G | ≤ -4.2

Row | Variant | polymerase ribozyme fitness (log ratio)
73 | A40U C76A C79A C114U G143U U146C U148A | ≤ -4.2
74 | A40C G50A C72U U78C C87U | ≤ -4.2
75 | A40C U55G G58A U130A U135C | ≤ -4.2
76 | A40U C54U A97U C99U | -2.64
77 | A40C C69G G80A | -0.716
78 | A40U G48C C85G C99A G143A | ≤ -4.2
79 | A40G C43G A64C | ≤ -4.2
80 | A40U C79U A121G | -2.75
81 | A40G A41C A52G G71U A107G U111G U139C U146G C149A U151G | ≤ -4.2
82 | A39U U53C C108G C149U | ≤ -4.2
83 | A40C C76U C93G G152A | ≤ -4.2
84 | A40G C76U C95U C116G | -3.42
85 | A40C A98U A122U | 0.766
86 | A40U C85G | -1.32
87 | A40U C85A | -1.44
88 | A40G A47G U144G | -2.26
89 | A40G A52G A91C A119U G128A | ≤ -4.2
90 | A39U G68A A73G C87G C132A G141C U144C | ≤ -4.2
91 | A40G A49U A60C C76A C96U U134G | ≤ -4.2
92 | A40C U82C G94U | -0.916
93 | A40C G84A A97U | -2.32
94 | A40C G141A | 0.793
95 | A39U C76A G83U C125U | ≤ -4.2
96 | A39U U61C C96A | -3.93

Row | Variant | polymerase ribozyme fitness (log ratio)
97 | A39U A73U | -4.11
98 | A40C G84A U90G G100C | ≤ -4.2
99 | A40C C51A G86C U139C | ≤ -4.2
100 | A40U C57A G86A A110U C125A G141U | ≤ -4.2
101 | A40G A47C C57U C85A A115U A119C A122G U144A | ≤ -4.2
102 | A40U A49C | ≤ -4.2
103 | A40C A41C G59A G70U G84A C85A C105G G141C G143U | ≤ -4.2
104 | A40C C57A U139C | -3.43
105 | A40C G50A A60U G88U G92C C95G G100U | ≤ -4.2
106 | A40C U56A A89G | -0.978
107 | A40C A52G U82A G92U A106U | -3.38
108 | A40G G48C A49C | ≤ -4.2
109 | A39U G74U G81C A91U A98G C99U G124A | ≤ -4.2
110 | A40C C57U A60G U61A | -2.29
111 | A40U C51U C93U | -1.15
112 | A39U G86A | -3.06
113 | A39U U53A C75G G86U U146G | ≤ -4.2
114 | A39U A47U C96U A122G G124A | -3.16
115 | A40U C63U G70C | -2.97
116 | A40C A52U U55A C93U | -3.92
117 | A40U G50C C85U | -2.29
118 | A40U C69U G84C G143C | ≤ -4.2
119 | A39U G46A C93G A119U U139G | ≤ -4.2
120 | A40C G48C G81U C85A | -1.52

Row | Variant | polymerase ribozyme fitness (log ratio)
121 | A40C C87U | -0.91
122 | A40C C87A | -3.55
123 | A40C G50A C95U U148C | ≤ -4.2
124 | A40C U82G A89G | 0.203
125 | A40C G83A A97G | -1.2
126 | A40C G92U G94A | 0.834
127 | A40G U53G A73G G81U G94A | ≤ -4.2
128 | A39U G84C | -3.33
129 | A40C C96G A119G | 0.217
130 | A39U C43U C85U G117U G126C C132G | ≤ -4.2
131 | A40C U45A G50A A73U G92A | ≤ -4.2
132 | A40G U77G G80A C93A A107G A120C A121U | ≤ -4.2
133 | A40U A60C | -1.31
134 | A39U G58C G88A | ≤ -4.2
135 | A40C A60G U139C U144C | -3.63
136 | A40C G50U U148A | ≤ -4.2
137 | A40G C87U C103G | ≤ -4.2
138 | A39U U56A C93U | -3.55
139 | A39U A40U A91U C95G | ≤ -4.2
140 | A40G C63G C85U U145A | -2.16
141 | A39U C43U U111G | ≤ -4.2
142 | A40G A91G A115G C116G A142C | ≤ -4.2
143 | A40C A49U C57A C76A U82C G94U | ≤ -4.2
144 | A40C U55A G59C C69U G84A | -2.39

Row | Variant | polymerase ribozyme fitness (log ratio)
145 | A39U G59C G83U | -2.72
146 | A39U C69A G74C C76U C87A | ≤ -4.2
147 | A40G C87G C103A G117U | ≤ -4.2
148 | A40G C85U | -2.16
149 | A40C C96U U144G U151G | -3.73
150 | A40C A113U C118U G136A | -2.68
151 | A39U U45G C85A A91C G92C | ≤ -4.2
152 | A40U C87U G88U | ≤ -4.2
153 | A40U A98G | -0.242
154 | A39U C95U C96A G124A | -3.2
155 | A40U C125U G128C | ≤ -4.2
156 | A39G U77A G143C | ≤ -4.2
157 | A40U C69A G143C | -2.79
158 | A40C G92C | -1.84
159 | A40U C54A C87U A89C | -2.61
160 | A40C G42A A49G G62C C93A | ≤ -4.2
161 | A39U A64U C87G | ≤ -4.2
162 | A40C G42C C69G C85A U104G G128C G133A | ≤ -4.2
163 | A40G U53A A73U C103G | ≤ -4.2
164 | A40C G140U | -3.39
165 | A40G C54U C76U A91C C95G G143U | ≤ -4.2
166 | A40G A52G A91U U102C A138U G143U | ≤ -4.2
167 | A39U G80C A91U | ≤ -4.2
